The RNAGym collection of RNA variant scans (doi:10.1021/acssynbio.7b00057)

B1: Pistol ribozyme (parent)
chain: GGGUCGUUGUUCCAUAAUCGCGUGGAUAUGGCACGCAAGUUUCUACCGGGCACCGUAAAUGUCCGACUGGAGCCGUUCGGGCGGCUAUAAACAGACCUCAGGCCCGAAGCGUGGCGGCACCUGCCGCCGGUGGUAAAAAAGAUCGGAAGAGCACACGUCU

Variants of: B1
Assay: aptazyme ON/OFF ratio, guanine; higher = stronger switching; co-transcriptional cleavage with and without guanine

First: U7G U8G G9A U11C C12U C13G
Second: G9C C12U C13U
The “aptazyme ON/OFF ratio” value of the first is higher: 1.44 for the first, 1.31 for the second.

Going from U7A U10A C12U to U7C U8A G9A U10A U11C, the “aptazyme ON/OFF ratio” value falls from 1.1 to 1.02.

First: U7C U8C U10G U11C C13A
Second: U7A U8A G9U U10C U11A
The “aptazyme ON/OFF ratio” value of the first is higher: 1.37 for the first, 1.29 for the second.

Going from U7C U8C G9C U11A C12A C13A to U7G U8C G9U U10C U11G C12U C13A, the “aptazyme ON/OFF ratio” value rises from 1.1 to 1.34.

Compared with U7C U8A G9A U10G U11G C12A C13G, U7A U8C U10G U11A C12U is lower in “aptazyme ON/OFF ratio” value: 1.14 for the first, 1.11 for the second.

First: U7C U8G G9A U11G C13G
Second: U7A G9A U10G C12G
The “aptazyme ON/OFF ratio” value of the first is lower: 1.03 for the first, 1.21 for the second.

Compared with U8G G9A U10A C12U C13G, U7G G9C U10A U11G C12A is lower in “aptazyme ON/OFF ratio” value: 1.31 for the first, 1.15 for the second.

First: U7G U8A G9C U11C C12G C13A
Second: U7A U8A G9C U11A C12A C13A
The “aptazyme ON/OFF ratio” value of the first is lower: 1.02 for the first, 1.08 for the second.

First: U7C G9U U10G C12A
Second: U7G U8A U10A U11C C12G
The “aptazyme ON/OFF ratio” value of the first is lower: 1.21 for the first, 1.26 for the second.

Going from U8G G9U U10A C12A C13A to U7A U8C G9U U10C U11G C12U C13A, the “aptazyme ON/OFF ratio” value falls from 1.21 to 1.15.

First: U7A U8A G9U U10A U11G C12A C13A
Second: U8C G9U U11A C12G
The “aptazyme ON/OFF ratio” value of the first is lower: 1.07 for the first, 1.36 for the second.

First: U7C U8G U11G C13U
Second: U8G G9A U10C U11A C12U C13A
The “aptazyme ON/OFF ratio” value of the first is higher: 1.14 for the first, 1.04 for the second.

Going from U7A U8C U11C C12A C13G to U7C U8A G9C C12U C13A, the “aptazyme ON/OFF ratio” value falls from 1.31 to 1.12.

Going from U7A U8G C12U C13U to U7C U8A G9U, the “aptazyme ON/OFF ratio” value rises from 1.53 to 1.59.

Going from U7G U8A U10A C12A C13A to U7G U8A G9A U10G U11C C12U C13A, the “aptazyme ON/OFF ratio” value falls from 1.33 to 1.1.

First: U7A G9U U10C U11C C12G C13U
Second: U7G U8C G9U U10A C12G C13U
The “aptazyme ON/OFF ratio” value of the first is lower: 1.01 for the first, 1.22 for the second.

Compared with U7C U10G U11G C12A C13U, U7G U8A U11G C12U C13A is higher in “aptazyme ON/OFF ratio” value: 1.26 for the first, 1.34 for the second.

Going from U7G G9U U10G U11C C13A to U7A U8A G9C U10C U11C C12U C13G, the “aptazyme ON/OFF ratio” value falls from 1.2 to 1.02.

Compared with U8G G9C U11C C13U, U8A U10A U11A C12A C13A is higher in “aptazyme ON/OFF ratio” value: 1.03 for the first, 1.21 for the second.

Compared with U7C U8A G9C U10G C12U, U8A G9A U10C C12U C13U is lower in “aptazyme ON/OFF ratio” value: 1.36 for the first, 1.2 for the second.

Compared with U8A G9C U10A U11C C13U, U7A G9A U10A U11A C12U C13U is higher in “aptazyme ON/OFF ratio” value: 1 for the first, 1.39 for the second.

Compared with U7A U8G G9U U11G C12U C13G, U7A U8C G9A U11C is lower in “aptazyme ON/OFF ratio” value: 1.29 for the first, 1.04 for the second.

Going from U7G U8A G9C U10A U11C C12A C13A to U7A U8C G9A C12G C13A, the “aptazyme ON/OFF ratio” value rises from 1.04 to 1.13.

First: U8A G9U U11G C13G
Second: U7G U8A U11G C12A C13A
The “aptazyme ON/OFF ratio” value of the first is lower: 1.08 for the first, 1.24 for the second.

Compared with U7A G9U U10G U11G C12A C13G, U8C G9C U10A C12U is higher in “aptazyme ON/OFF ratio” value: 1.12 for the first, 1.13 for the second.

First: U7A U8A G9C U10G U11A C12U C13U
Second: U8A G9A U10A C12U C13A
The “aptazyme ON/OFF ratio” value of the first is lower: 1.1 for the first, 1.2 for the second.

Going from U7C G9A U10C C12U C13U to U7G U8G G9U U10C U11A C12A, the “aptazyme ON/OFF ratio” value rises from 1.14 to 1.28.

First: U7A U8G U10A U11C C12A C13A
Second: U7G U8C G9U U11C C12G C13U
The “aptazyme ON/OFF ratio” value of the first is lower: 1.26 for the first, 1.32 for the second.

Going from U7C U8C U10G U11G C12U C13A to U7C U8G G9C U10G U11G C12A C13G, the “aptazyme ON/OFF ratio” value rises from 1.1 to 1.11.

Going from U7G U8C U10G U11G C13G to U7A U10G U11A C12G, the “aptazyme ON/OFF ratio” value falls from 1.26 to 1.24.

Compared with U7G U8C G9A C13U, U7A U8A U10G C12U C13A is higher in “aptazyme ON/OFF ratio” value: 1.22 for the first, 1.51 for the second.

First: U8G G9C U10G C12G C13G
Second: U7C U8A G9C U10A U11G C12G C13G
The “aptazyme ON/OFF ratio” value of the first is lower: 1.08 for the first, 1.15 for the second.

Going from U7C U8A G9U U10C U11C to U7C U8G G9U U10C U11G C12A C13A, the “aptazyme ON/OFF ratio” value rises from 1.01 to 1.1.

Compared with U8C G9A U11C C12A, U7G U8G G9C U11G C12U is higher in “aptazyme ON/OFF ratio” value: 1.3 for the first, 1.31 for the second.

Compared with U7G U8C G9A U10A U11C C12A C13A, U7A U8G G9C U10C U11G C12U C13U is higher in “aptazyme ON/OFF ratio” value: 1.13 for the first, 1.41 for the second.

First: U7A U8C G9A U11C C12A C13G
Second: U7A U8G G9U U10G U11A C12G C13A
The “aptazyme ON/OFF ratio” value of the first is higher: 1.16 for the first, 1.13 for the second.

Going from U7C G9A U10A U11A C12U C13A to U7A G9C U10G U11A C12A C13G, the “aptazyme ON/OFF ratio” value falls from 1.18 to 1.08.

Compared with U8G U10C C12A, U7C U8A U10G C12A C13G is lower in “aptazyme ON/OFF ratio” value: 1.34 for the first, 1.07 for the second.

Going from U7A U8G G9U U11A C12G C13G to U7A U10G U11A C13U, the “aptazyme ON/OFF ratio” value falls from 1.26 to 1.06.

Going from U7G G9U U11C C12U to U7A U8G U10G C12G, the “aptazyme ON/OFF ratio” value falls from 2.32 to 1.21.

Compared with U7G U8G U11G C12G C13G, U10C U11C C13G is lower in “aptazyme ON/OFF ratio” value: 1.21 for the first, 1.07 for the second.

For U8G G9C U11G C13G, the “aptazyme ON/OFF ratio” value was 1.04.
